The data set is described as follows: yeast display, Sf9 membrane polyspecificity reagent, FACS + sequencing; frameworks hold sequencing errors. Summed up: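 Nanobodies from a synthetic yeast display library (Saccharomyces cerevisiae BJ5465), induced 36–48 hours with galactose, were stained 1 hour at 4 °C with 10% biotinylated, detergent-solubilized Sf9 membrane reagent, enriched on streptavidin microbeads, then FACS-sorted. Anti-HA (expression) and streptavidin (reagent binding) fluorescence set low and high (top ~1%) gates. Polyreactivity labels come from the gate of origin. Genes were colony-PCR amplified, MiSeq 2 × 250 sequenced and filtered by CDR length.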
With “QVQLEESGGGLVQAGGSLRLSCAASGFTFGGYAMGWYRQAPGKERELVAAITGSGGNTFYADSVKGRFTISRDYAKNTVYLQMNCLKPEDTAVYYCAKSWYPWSSYGYYRRYDSWGQGTQVTLSS”, the “polyreactivity (PSR sort gate)” value is listed as “low polyreactivity”.

Turning to “QVQLEESGGGLVQAGGSLRLSCAASGFTFLYNAMGWYRQAPGKERELVASINSGGSTNYADSVKGRVTISRDNAKNTVYLQMNSLKPEDTAVYYCNAKRHVRKGDYWGQGTQVTVSS”, the “polyreactivity (PSR sort gate)” value is reported as “low polyreactivity”.

With “QVQLEESGGGLVQAGGSLRLSCAASGFTFNLYTMGWYRQAPGKERELVAAISRSGDRTYYADSVKGRFTISRDNAKNTVYLQMNSLKPEDTAVYYCAARSYRPTRGDYWGQGTQVTVSS”, the “polyreactivity (PSR sort gate)” value is recorded as “high polyreactivity”.

Turning to “QVQLEESGGGLVQAGGSLRLSCAASGFTFSLYAMGWYRQAPGKERELVAAISTSGGSTYYADSVKGRFTISRDNAKNTVYLQMNSLKPEDTAVYYCAATTVYSRAYYYVTYWYGYWGQGTQVTVSS”, the “polyreactivity (PSR sort gate)” value is “low polyreactivity”.

For the sequence “QVQLEESGGGLVQAGGSLRLSCAASGFTFYGNAMGWYRQAPGKERELVATIRYRGGRTYYADSVKGRFTISRDNAKNTVYLQMNSLKPEDTAVYYCNRVGYQYGSDQEDDYWGQGTQVTVSS”, the “polyreactivity (PSR sort gate)” value was “high polyreactivity”.

Consider “QVQLEESGGGLVQAGGSLRLSCAASGFTIIRYAMGWYRQAPGKERELVATISRRGASTYYADSVKGRFTISRANAKNTVYLQMNSLKPEDTAVYYCAKRTYSRKFRGAYNYWGQGTQVTVSS”, for which the “polyreactivity (PSR sort gate)” value is “high polyreactivity”.

As for “QVQLEESGGGLVQAGGSLRLSCAASGFTISYYAMGWYRQAPGKERELVAAISSSGGSTYYADSVKGRFTISRDNAKNTVYLQMNSLKPDDTAVYYCAAGWPEYLRDGDYWGQGTQVTVSS”, the “polyreactivity (PSR sort gate)” value is “low polyreactivity”.

In the case of “QVQLEESGGGLVQAGGSLRLSCAASGIIFAANAMGWYRQAPGKERELVAAISKNGGITYYADSVKGRFTISRDNAKNTVYLQMNSLKPEDTAVYYCAARWRQTRRYYYWGQGTQVTVSS”, the “polyreactivity (PSR sort gate)” value is given as “high polyreactivity”.

As to “QVQLEESGGGLVQAGGSLRLSCAASGIIFIDYAMGWYRQAPGKERELVAAISNGGSTYYADSVKGSFTISRDNAKNTVYLQMNSLKPEDTEVYYCAAGGALASHWSKKLYDYWGQGTQVTVSS”, the “polyreactivity (PSR sort gate)” value is “low polyreactivity”.

“QVQLEESGGGLVQAGGSLRLSCAASGIIFPVYAMGWYRQAPGKERELVAAITRSGGITYYADSVKGRFTISRDNEKNTVYLQMNSLKPEDTAVYDCAASVYSLSRRSWMDYWGQGTQVTVSS”: the “polyreactivity (PSR sort gate)” value was “low polyreactivity”.

Regarding “QVQLEESGGGLVQAGGSLRLSCAASGIIFQRNDMGWYRQAPGKERELVANIRDGGITYADSVKGRFTISRDNAKNTVYLQMNSLKPEDTAVYYCARDDTSPGYCDQSSNAAYYYWGQGTQVTVSS”, the “polyreactivity (PSR sort gate)” value was “low polyreactivity”.

Regarding “QVQLEESGGGLVQAGGSLRLSCAASGIIFRGNAMGWYIQAPGKERELFAAIRFSGGSTYYADSVKGRFTISRDNAKNTVYLQMNSLKPEDTAVYYCAATRRRYGSTTSEYYYWGQGTQVTVSS”, the “polyreactivity (PSR sort gate)” value is reported as “high polyreactivity”.

For “QVQLEESGGGLVQAGGSLRLSCAASGIIFTTYDMGWYRQATGKERELVAAISSSTTNTYYADSVKGRFTISRDNAKNTVYLQMNSLKPEDTAVYYCAAPYKRNAGFDYWGQGTQVTVSS”, the “polyreactivity (PSR sort gate)” value was “low polyreactivity”.

Take “QVQLEESGGGLVQAGGSLRLSCAASGIIFWEYAMGWYRQAPGKERELVAAINARGTRTYYADSVKGRFSISRDNAKNTVYLQMNSLKPEDTAVYYCAADRYGWTRYDSWGQGTQVTVSS”: the “polyreactivity (PSR sort gate)” value is recorded as “high polyreactivity”.

Take “QVQLEESGGGLVQAGGSLRLSCAASGIIIKYYAMGWYSQAPGKESELVAAISSSGGKTYYADSVKGRFTISRDNAKNTVYLQMKSLKPEDTGVDYCAAQRYVRYKYDYWGQGTQVTVSS”: the “polyreactivity (PSR sort gate)” value was “high polyreactivity”.

On to “QVQLEESGGGLVQAGGSLRLSCAASGITFGFYAMGWYRQAPGKERELVASITWRGGSTYYADSVKGRFTISRVNAKNTVYLHMNSLKPEDTAVYYCAAEQYVFRPRAQEITSYDYWGQGTQVTVSS”, for which the “polyreactivity (PSR sort gate)” value is “high polyreactivity”.

For “QVQLEESGGGLVQAGGSLRLSCAASGITFISYAMGWYRQAPGKERELVAVISKSGGRTYYADSVKGRFTISRDNAKNTVYLQMNSLKPEDTAVYYCAATKRYASGMYYWGQGTQVTVSS”, the “polyreactivity (PSR sort gate)” value is recorded as “high polyreactivity”.

Consider “QVQLEESGGGLVQAGGSLRLSCAASGITFVTYAMGWYRQAPGKERELVAAISRSGGRTYYADSVKGRFTISRDNAKNTVYLQMNSLKPDDTAVYYCAAERKNKYDYWVQGTQVTVSS”, for which the “polyreactivity (PSR sort gate)” value is given as “high polyreactivity”.

On to “QVQLEESGGGLVQAGGSLRLSCAASGLIFPVYAMGWYRQAPGKERELVASISWNGGSTYYADSVKGRFTISRDNAKNTVYLQMNSLKPEDTAVYYCNKYPVSLWYYSKDYTYDYWGQGTQVTVSS”, for which the “polyreactivity (PSR sort gate)” value is recorded as “low polyreactivity”.

Consider “QVQLEESGGGLVQAGGSLRLSCAASGLISSPNAMGWYRQAPGKERELVAAITRRGGSTYYADSVKGRFTISRDNAMNTVYLQINSLKPEDTAVYYCAKATGRPGYDYWGQGTQVTVSS”, for which the “polyreactivity (PSR sort gate)” value is recorded as “high polyreactivity”.

Consider “QVQLEESGGGLVQAGGSLRLSCAASGLTFDPYAMGWSRQAPGKERELVAVITSRTGSTYYADSVKGRFTISRDNAKNTVYLQMNSLKPEDTAVYYCAAEIYYYGMYGYDYWGQGTQVTVSS”, for which the “polyreactivity (PSR sort gate)” value is on record as “high polyreactivity”.

As to “QVQLEESGGGLVQAGGSLRLSCAASGLTFRIYAMGWYRQAPGKERELVATISTRGGSTYYADSVKGRFTISRDNPKNTVYLQMNSLQPEDTAVYYCAASLGWFSGSLYNYWGQGTQVTVSS”, the “polyreactivity (PSR sort gate)” value is “high polyreactivity”.

Turning to “QVQLEESGGGLVQAGGSLRLSCAASGLTFVRYAMGWYRQAPGKERELVAAISSGGSTNYADSVKGRVTISRDNAKNTVYLQMNSLKPEDTAVYYCAARPPRTYWRYQSDYWGQGTQVTVSS”, the “polyreactivity (PSR sort gate)” value was “high polyreactivity”.

In the case of “QVQLEESGGGLVQAGGSLRLSCAASGRIFAYYAMGLYRQAPGKERELVAAITTNGGGTYYADSVKGRFTISRDNAKNTVYLQMNSLKPEDTAVYYCNAVKQRSSFYDYWGQGTQVTVSS”, the “polyreactivity (PSR sort gate)” value is given as “low polyreactivity”.

“QVQLEESGGGLVQAGGSLRLSCAASGRIFGAYAMGWYRQAPGKERELVAAITSRGGNTYYADSVKGRFTISRDNAKNTVYLQMNSLKPEDTAVYYCAARHDKRRQYYVGESAFDYWGQGTQVTVSS”: the “polyreactivity (PSR sort gate)” value was “low polyreactivity”.

As for “QVQLEESGGGLVQAGGSLRLSCAASGRIFGWYALGWTRQAAGKESELVAAISNDGSTNYADSVKGRFTSSRDNAKNTVYLQLNSVKPEDTAVSYCNARVYSSRARWGTYDYWGQGNQVTVSS”, the “polyreactivity (PSR sort gate)” value is “high polyreactivity”.

In the case of “QVQLEESGGGLVQAGGSLRLSCAASGRIFKGYAMGWYRQATGKETEVVAAISSRGGNTYYADSVKGRFTISRDNAKNTVYLQMNSLKPVDTAVYYCAAVYKWSRYGGYNYWGQGTQVTVSS”, the “polyreactivity (PSR sort gate)” value is “low polyreactivity”.

In the case of “QVQLEESGGGLVQAGGSLRLSCAASGRIFRSYAMGWYRQAPGKERELVAAISQRGGRTYYADSVKGRFTISRDNAKNTVYLQMNSLKPEDTAVYYCAKSNPKLGYYYLQGDLYDYWGQGTQVTVSS”, the “polyreactivity (PSR sort gate)” value is listed as “low polyreactivity”.

Take “QVQLEESGGGLVQAGGSLRLSCAASGRIFRYYAMGWSRQAPGKERELVAGISRGTSTYYADSVKGRFTISRDNAKNTVYLQMNSLKPEDTAVYYCAKGSIQYFRPYTFYSWGQGTQVTVSS”: the “polyreactivity (PSR sort gate)” value is given as “high polyreactivity”.

As to “QVQLEESGGGLVQAGGSLRLSCAASGRIFSRYAMGGYRQAPGKERELVAAITQSGTSTYYADSVKGRFTISRDNAKNTVYLQMNSLKPEDTAVYYCNAYRQYRYDYWGQGTQVTVSS”, the “polyreactivity (PSR sort gate)” value is given as “low polyreactivity”.

Regarding “QVQLEESGGGLVQAGGSLRLSCAASGRIFVNYDMGSDRQAPGKERELVADISISGSTDYADSVKGRFTISRDNAKNTVYLQMNSLKPEDTAVYYCATSFYVSDYYVPYEMGYWGQGTQVTVSS”, the “polyreactivity (PSR sort gate)” value is listed as “low polyreactivity”.

“QVQLEESGGGLVQAGGSLRLSCAASGRIFVSNAMGWYRQAPGKERELVAAITDSGGSTYYADSVKGRFTISRDNAKNTVYLQMNSLKPEDTAVYYCATRTLFRYPNYGNNLWGYDYWGLGTQVTVSS”: the “polyreactivity (PSR sort gate)” value is recorded as “low polyreactivity”.

Turning to “QVQLEESGGGLVQAGGSLRLSCAASGRIFYQNAMGWYRQAPGKERQLVADIASGGSTSYADSVKGRFTISRDNAKNTVYIQMNSLKPEDTAVYYCATAVLYGDGWYYYWGQGTQVTVSS”, the “polyreactivity (PSR sort gate)” value was “low polyreactivity”.

In the case of “QVQLEESGGGLVQAGGSLRLSCAASGRIIGGYAMGWYRQAPGKERELVAGIRGGTSTYYADSVKGRFTISRDNAKNTVYLQMNSQKPEDTAVYYCNARSLGRKYDYWGQGTQVTVSS”, the “polyreactivity (PSR sort gate)” value is “low polyreactivity”.

Consider “QVQLEESGGGLVQAGGSLRLSCAASGRIIQQYAMGWSRQAPGKDRELVAAISRGGSTYYADSEKGRFTISRDNAKNTVYLLMYSLKPEDTAVYDCNAGVGFTSAPQKYYYWGEGTQVTVSS”, for which the “polyreactivity (PSR sort gate)” value is “high polyreactivity”.

In the case of “QVQLEESGGGLVQAGGSLRLSCAASGRIQYNAMGWYRQAPGKEREFVAAISWSGGTTYYADSVKGRFTISRDNAKNTVYLQMNSLKPEDTAVYYCATPYTHWGQGTQVTVSS”, the “polyreactivity (PSR sort gate)” value was “high polyreactivity”.

For the sequence “QVQLEESGGGLVQAGGSLRLSCAASGRLFYSNPMGWYREAPGKEREVVAAISSGASTYYADSVKGRFTISRDNAKNTVYLQMNSLKPEDTAVYYCAVYRPSSYDYGYWGQGTQVTVSS”, the “polyreactivity (PSR sort gate)” value was “low polyreactivity”.

“QVQLEESGGGLVQAGGSLRLSCAASGRNLEVYAMGWNRKAPGKERELVAAIRWSDGNTYYADSVKGRFTISRDIAKNTVYLQMNSLKPEDTAVYYCAARTPGGYDWGQGTQVTVSS”: the “polyreactivity (PSR sort gate)” value was “high polyreactivity”.

For the sequence “QVQLEESGGGLVQAGGSLRLSCAASGRTFDYYAMGWYRQAPGKERELVAAIRLISGNTYYADSVKGRFTISRDNAKNTVYLQMNSLKPEDTAVYYCAAPSDGVPSLYGGMDYWGQGTQVTVSS”, the “polyreactivity (PSR sort gate)” value is on record as “low polyreactivity”.

In the case of “QVQLEESGGGLVQAGGSLRLSCAASGRTFGLNAMGWYRQAPGKERELVAAITYSGGSTYYADSVKGRCTISRDNAKNTVYLHMNSLKPEDTAVYYCAKEVQTYWYHYYYWGHGTQVTVSS”, the “polyreactivity (PSR sort gate)” value is on record as “high polyreactivity”.
